What all share (experiment): fluorescence anisotropy
The subject of data set [1] is Protamine 1 EE (P1 S43ET45E) (mouse).
The subject of data set [2] is Protamine 1 WT (P1) (mouse).
Data set [3] deals with Protamine 1 AA (P1 S43AT45A) (mouse).

We go through one substance from doi:10.1101/2025.11.18.688960.

Consider 99 bp fluorescent dsDNA, for which the Kd (commonly a measure of binding affinity in units of concentration) in data set [1] is 1100 nM; in data set [2], 430 nM; in data set [3], 610 nM.
